Reference: patent US20030235860A1, “Interactions between AR, ER, TR2, and TR4” (priority 1999, published 2003)

T1: TR2 (Homo sapiens, UniProt P13056)
T1 sequence (P13056 1-603): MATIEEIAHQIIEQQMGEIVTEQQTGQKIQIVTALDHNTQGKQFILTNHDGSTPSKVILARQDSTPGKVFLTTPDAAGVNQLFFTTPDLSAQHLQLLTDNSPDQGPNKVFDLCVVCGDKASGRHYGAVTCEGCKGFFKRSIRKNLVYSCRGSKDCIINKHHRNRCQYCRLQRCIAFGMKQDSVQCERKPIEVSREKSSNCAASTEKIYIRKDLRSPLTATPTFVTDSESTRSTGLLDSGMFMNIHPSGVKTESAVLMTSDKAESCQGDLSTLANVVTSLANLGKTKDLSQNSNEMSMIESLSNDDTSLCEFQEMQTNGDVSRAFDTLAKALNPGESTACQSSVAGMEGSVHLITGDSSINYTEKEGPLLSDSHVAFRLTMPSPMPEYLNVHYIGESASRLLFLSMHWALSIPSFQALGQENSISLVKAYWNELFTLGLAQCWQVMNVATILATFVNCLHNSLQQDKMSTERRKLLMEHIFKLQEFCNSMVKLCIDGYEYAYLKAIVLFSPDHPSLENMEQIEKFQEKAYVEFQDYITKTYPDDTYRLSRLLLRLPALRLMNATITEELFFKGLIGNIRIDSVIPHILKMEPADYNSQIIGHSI

T2: TR4 (Homo sapiens, UniProt P49116)
T2 construct: full-length AR and TR4 in eukaryotic expression vectors (pSG5AR and pCMXTR4) were co-transfected; expressed in transfected cells; host or cells: H1299, HepG2
T2 sequence (P49116 1-615 isoform P49116-2 N175S/W419R/A428G/K503N/L504W/A613V): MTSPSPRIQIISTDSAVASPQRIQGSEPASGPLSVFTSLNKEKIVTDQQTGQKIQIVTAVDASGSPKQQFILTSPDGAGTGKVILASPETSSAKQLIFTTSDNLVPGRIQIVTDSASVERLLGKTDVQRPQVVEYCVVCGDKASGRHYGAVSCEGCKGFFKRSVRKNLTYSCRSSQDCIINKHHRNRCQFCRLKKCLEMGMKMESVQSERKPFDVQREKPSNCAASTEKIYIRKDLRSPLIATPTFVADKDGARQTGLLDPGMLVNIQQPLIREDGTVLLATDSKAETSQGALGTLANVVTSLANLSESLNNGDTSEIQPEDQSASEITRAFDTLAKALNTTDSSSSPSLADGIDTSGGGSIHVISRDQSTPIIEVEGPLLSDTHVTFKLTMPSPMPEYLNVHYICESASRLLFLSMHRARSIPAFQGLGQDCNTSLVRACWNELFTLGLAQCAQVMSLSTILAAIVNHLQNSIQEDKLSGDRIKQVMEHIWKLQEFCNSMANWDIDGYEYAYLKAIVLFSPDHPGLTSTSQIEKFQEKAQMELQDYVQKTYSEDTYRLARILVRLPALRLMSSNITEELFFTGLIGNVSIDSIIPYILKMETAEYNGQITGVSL

T3: estrogen receptor (ER), full-length (human, UniProt P03372 1-595)
T3 construct: 35S-labeled when in vitro translated for the pull-downs; endogenous in MCF7 cells for the co-immunoprecipitation; also called ERα; pSG5-ER
T3 sequence: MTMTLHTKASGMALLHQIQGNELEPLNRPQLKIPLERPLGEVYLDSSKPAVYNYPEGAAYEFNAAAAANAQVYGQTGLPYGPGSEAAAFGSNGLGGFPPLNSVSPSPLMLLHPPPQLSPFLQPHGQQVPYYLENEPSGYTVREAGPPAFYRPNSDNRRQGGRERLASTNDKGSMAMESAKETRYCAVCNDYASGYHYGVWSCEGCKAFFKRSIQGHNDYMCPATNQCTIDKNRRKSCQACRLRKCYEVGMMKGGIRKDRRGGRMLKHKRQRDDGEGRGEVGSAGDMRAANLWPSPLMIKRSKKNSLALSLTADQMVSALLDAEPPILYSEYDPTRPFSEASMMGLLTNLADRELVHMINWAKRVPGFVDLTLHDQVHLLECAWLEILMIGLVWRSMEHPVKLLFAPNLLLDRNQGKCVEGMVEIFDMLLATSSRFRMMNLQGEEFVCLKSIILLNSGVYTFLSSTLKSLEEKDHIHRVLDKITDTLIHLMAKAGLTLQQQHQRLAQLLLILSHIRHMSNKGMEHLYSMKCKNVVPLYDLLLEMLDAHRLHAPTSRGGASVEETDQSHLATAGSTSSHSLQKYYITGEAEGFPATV

B1: TR2 N-T (row label of Table 4) (receptor)
chain: MATIEEIAHQIIEQQMGEIVTEQQTGQKIQIVTALDHNTQGKQFILTNHDGSTPSKVILARQDSTPGKVFLTTPDAAGVNQLFFTTPDLSAQHLQLLTDNSPDQGPNKVFDL
notes: also called TR2 N-terminal domain; not shown: GST fusion partner of pGEX-KG (GST-TR2-#1)
B2: PR: progesterone receptor (protein)
chain: MTELKAKGPRAPHVAGGPPSPEVGSPLLCRPAAGPFPGSQTSDTLPEVSAIPISLDGLLFPRPCQGQDPSDEKTQDQQSLSDVEGAYSRAEATRGAGGSSSSPPEKDSGLLDSVLDTLLAPSGPGQSQPSPPACEVTSSWCLFGPELPEDPPAAPATQRVLSPLMSRSGCKVGDSSGTAAAHKVLPRGLSPARQLLLPASESPHWSGAPVKPSPQAAAVEVEEEDGSESEESAGPLLKGKPRALGGAAAGGGAAAVPPGAAAGGVALVPKEDSRFSAPRVALVEQDAPMAPGRSPLATTVMDFIHVPILPLNHALLAARTRQLLEDESYDGGAGAASAFAPPRSSPCASSTPVAVGDFPDCAYPPDAEPKDDAYPLYSDFQPPALKIKEEEEGAEASARSPRSYLVAGANPAAFPDFPLGPPPPLPPRATPSRPGEAAVTAAPASASVSSASSSGSTLECILYKAEGAPPQQGPFAPPPCKAPGASGCLLPRDGLPSTSASAAAAGAAPALYPALGLNGLPQLGYQAAVLKEGLPQVYPPYLNYLRPDSEASQSPQYSFESLPQKICLICGDEASGCHYGVLTCGSCKVFFKRAMEGQHNYLCAGRNDCIVDKIRRKNCPACRLRKCCQAGMVLGGRKFKKFNKVRVVRALDAVALPQPVGVPNESQALSQRFTFSPGQDIQLIPPLINLLMSIEPDVIYAGHDNTKPDTSSSLLTSLNQLGERQLLSVVKWSKSLPGFRNLHIDDQITLIQYSWMSLMVFGLGWRSYKHVSGQMLYFAPDLILNEQRMKESSFYSLCLTMWQIPQEFVKLQVSQEEFLCMKVLLLLNTIPLEGLRSQTQFEEMRSSYIRELIKAIGLRQKGVVSSSQRFYQLTKLLDNLHDLVKQLHLYCLNTFIQSRALSVEFPEMMSEVIAAQLPKILAGMVKPLLFHKK
B3: TR2 DBD (row label of Table 4) (receptor)
chain: DLSAQHLQLLTDNSPDQGPNKVFDLCVVCGDKASGRHYGAVTCEGCKGFFKRSIRKNLVYSCRGSKDCIINKHHRNRCQYCRLQRCIAFGMKQDSVQCERKPIEVSREK
notes: not shown: GST fusion partner of pGEX-KG (GST-TR2-#2)
B4: TR4 LBD (row label of Table 4) (receptor)
chain: AASTEKIYIRKDLRSPLIATPTFVADKDGARQTGLLDPGMLVNIQQPLIREDGTVLLATDSKAETSQGALGTLANVVTSLANLSESLNNGDTSEIQPEDQSASEITRAFDTLAKALNTTDSSSSPSLADGIDTSGGGSIHVISRDQSTPIIEVEGPLLSDTHVTFKLTMPSPMPEYLNVHYICESASRLLFLSMHRARSIPAFQGLGQDCNTSLVRACWNELFTLGLAQCAQVMSLSTILAAIVNHLQNSIQEDKLSGDRIKQVMEHIWKLQEFCNSMANWDIDGYEYAYLKAIVLFSPDHPGLTSTSQIEKFQEKAQMELQDYVQKTYSEDTYRLARILVRLPALRLMSSNITEELFFTGLIGNVSIDSIIPYILKMETAEYNGQITGVSL
notes: not shown: Fusion partner: GST in the pull-down with ER, GAL4-DBD in the hybrid assays with AR

Columns and labels:
[1] = target: T1, TR2; assay: TR2-mediated transactivation reporter assay; format: cell-based; conditions: H1299 cells; absence or presence of E2
Protocol: Transfections and chloramphenicol acetyltransferase (CAT) assays were performed as described previously. Yeh, & Chang, Proc. Natl. Acad. Sci. 93, 5517-5521 (1996). Briefly, 4×10^5 cells were plated in 60-mm dishes and cultured for 24 h, and then the medium was changed to phenol red free DMEM with 5% charcoal-stripped FCS 2 h before transfection. The cells were co-transfected with TR2 and/or ER expression plasmids with 2 μg of TR2-TK-CAT reporter or 1 μg of ERE-CAT reporter gene plasmid, as indicated in the Figures, by using the calcium phosphate precipitation method. A β-gal actosidase expression plasmid, pCMV-β-gal, was transfected in all transfections as an internal control for normalizing transfection efficiency. The total amount of DNA was adjusted up to 10.5 μg with parent vectors, pSG5 or pCMV in each transcriptional activity assay. […] The cells were then harvested and whole cell extracts were used for CAT assay. The CAT activity was quantitated by Phosphorlmager (Molecular Dynamics). Data are presented as means±S.D. of at least three independent experiments.
The CAT reporter assay was used to study the potential consequence of the formation of heterodimers between the TR2 and ER. […] More specifically, H1299 cells were transiently cotransfected with 2 μg of DR4-TK-CAT reporter plasmid and 3 μg of TR2 expression plasmid together with increasing amounts of the ER expression vector. […] Cells were also transfected with internal control reporter plasmid, pCMV-β-gal, as an internal control for transfection efficiency. Luciferase activity was then analyzed following manufacturer's instructions (Promega). […] Similar results were obtained when the DR4-TK-CAT reporter with DR1-HBV-LUC were replaced, another TR2 response element (FIG. 7C).
This conclusion was further confirmed by using the chimera receptor, TR2-androgen receptor (AR) ARp-TR2, which was generated by swapping TR2 proximal box (P-box) with that found in the AR. […] Luciferase activity was then analyzed following manufacturer's instructions (Promega). […]

[2] = target: T2, TR4; assay: TR4-mediated transactivation reporter assay; format: cell-based; conditions: H1299 cells; absence or presence of DHT
Protocol: Cells were routinely maintained in DMEM with 10% heat-inactivated fetal bovine serum. The cells were transfected using a modified calcium phosphate precipitation method, Mizokami, & Chang, J: Biol. Chem. 269,25655-25659 (1994), or SuperFect (Qiagen). To normalize the transfection efficiency, the (3-galactosidase expression ver and pRL-TK were co-transfected in CAT assay and in Dual-luciferase reporter assay system (Promega), respectively.
More specifically, 500 ng of reporter plasmids were co-transfected(DR4-CAT and CNTFR-15-LUC) with 200 ng of pCMX-TR4 and increasing amounts of pCMV-AR (200, 600, and 1,200 ng), pSG5GR (1,200 ng), or pSG5 PR (1,200 ng) using the SuperFect transfection kit (Qiagen) (PCMV AR Mowszowicz et al., (1993) Molecular Endocrinology 7:861:869). […] Similar results were obtained when the DR4-TK-CAT reporter was replaced with DR1-CNTFR-15-LUC, another TR4 response element (FIG. 3A). Young, et al., J: Biol. Chem. 272,3109-3116 (1997).
Another TR4 potential target gene, which is located in the hepatitis B virus (HBV) enhancer II region (−34 to −7) containing a classic DR1 motif. Breidbart, et al., Pediatric Res. 34,300-302 (1993), was investigated. The reporter plasmid CpFL(4)-LUC, which contains the HBV core promoter (Cp) sequence located between −34 and −7 (nucleotide coordinates 1751 and 1778 derived from the Genbank database) was shown above in FIG. 3B. The arrows indicate the DRI motif in HBV core promoter. HepG2 cells were co-transfected with 1.5 μg CpFL(4)-LUC reporter and 0.5 μg pCMX-TR4, with increasing amounts of pCMV-AR (0.5, 2.5, and 5 μg) by modified calcium phosphate precipitation method. The relative reporter gene activities were compared to the CAT activities (or luciferase activities) with vector alone. To normalize the transfection efficiency, the β-galactosidase expression vector and pRL-TK were co-transfected in the CAT assay and in the Dual-luciferase reporter assay system (Promega), respectively.

[3] = target: T3, estrogen receptor (ER), full-length; assay: Table 4, summary of interactions tested; assay not given

Row | Molecule | CAT activity induced by pCMV-TR2 (DR4-TK-CAT; similar with DR1-HBV-LUC) [1] | CAT activity induced by pCMXTR4 (DR4-TK-CAT; similar with DR1-CNTFR-I5-LUC) [2] | binding result [3]
1 | GR: glucocorticoid receptor | no suppressive effect | no suppressive effects | 
2 | B1 |  |  | no binding
3 | B2 | no suppressive effect | no suppressive effects | 
4 | B3 |  |  | binds
5 | B4 |  |  | binds
